Experimental data from publication PMC7549315.

Target: GFP-SAPwt (SAP domain of SAF-A) (UniProt Q00839 8-42)
Assay: EMSA

Chain of GFP-SAPwt (SAP domain of SAF-A) (Q00839 8-42): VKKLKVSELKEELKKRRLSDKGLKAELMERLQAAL

B1: AT-rich SAR DNA (dsDNA)
DNA 1: AATTCAGAAAATAATAAAATAAAACTAGCTATTTTATATTTTTTC
DNA 2: GAAAAAATATAAAATAGCTAGTTTTATTTTATTATTTTCTGAATT
- Kd: 16.5 µM
